Columns and labels:
[1] = biological target: VIC16 REFORMab EFTEA (G236A/S267E/H268F/S324T/I332E) (mouse | human); assay: SPR
[2] = biological target: VIC16 REFORMab SDIEALGA (G236A/S239D/A330L/I332E) (mouse | human); assay: SPR

recombinant human FcγR3B, sequence (O75015 17-200): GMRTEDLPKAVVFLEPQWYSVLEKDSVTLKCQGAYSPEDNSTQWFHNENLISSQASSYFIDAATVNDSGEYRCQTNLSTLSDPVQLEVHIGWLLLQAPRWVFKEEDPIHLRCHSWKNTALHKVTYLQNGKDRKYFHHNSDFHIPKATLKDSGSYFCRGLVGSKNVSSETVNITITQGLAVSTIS

recombinant human FcγR3B (from UniProt O75015 17-200) (receptor)
Kd [1]: 475 µM | Kd [2]: 3.2 µM

Reference: paper PMC8111768
